This passage reports oxidation peak shift (ΔEPeak) of pBQ results from patent US20240361320A1.

This assay has as its target SARS-CoV-2 3CL^pro enzyme (Recombinant derived from Escherichia coli, ab277614, ABCAM; SEQ ID NO:2) (SARS-CoV-2) (UniProt P0DTC1). Briefly: cell-based or functional assay.

In the case of “myoglobin antibody (Monoclonal rabbit-derived, ab77232, ABCAM; binding to SEQ ID NO:5)”, the oxidation peak shift (ΔEPeak) of pBQ turned out to be 0 mV.
